Experiment: soluble fraction after stress (log2 fold change); higher = more stays soluble; pooled small domains, quantitative proteomics
Details: stress: pH 4
Method in brief: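 Values are on a log2 scale, where higher means more of the domain stayed soluble after pH 4 stress. They are fold changes in the soluble amount of each domain from pooled custom libraries, measured by high-throughput quantitative proteomics. The fold change is taken to reflect aggregation propensity.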

Sequence	soluble fraction (log2)
HMKIDLTPQEEKIYSVLETELTLDEIIMKTSIKAGEALAILMDLELKKLVASVAGGKYRRKA	0.157
HMEHLTATERHLVAYLEAHLGQVPSLSITKLSQEANVSTASIVRTMKKLGYDGFTAFKHAIKQQLR	0.156
HMSNNLAYSQFLDRVKNKEIRKVEIRGQSIVGYTSNNETFKTYAPLNDPKMYDELLTNDVQVQVDPP	0.0357
HMPSPTPEQVLKAFTDAAMQKNTVEELKQAFAKAWKMLEGTPEQHKAQDVYNIRRDELEGAA	-0.0378
HMQQLDDDTVAYVADNGIAVKSKNGKELSVDTSGLSYDIIMDMFRNLPRNGDFFSSKYWSDNIQKAQAR	-1.34
HMKGMIKVASMSLGADLGLYSRHLKYLGIVHRVVEESGGQSVYIQKLNDLHTAKESLELYLKNELKI	-0.476
HMGPWTETAAKGDAVSKRMLITWLQENADAEFLAAQKLTGQATSVAKRVTKDQLVELYLSVTTAA	-0.149
HMLVATFGPTTGWEGREIIWDVDRFILVGHGAVPAAGVLDYDRRGQLIWAQPELRAWVVEVDRWETG	-1.61
HMEKKKVPEVAGQDEAAARNVMTNSGFVVDVEQKEDDNVPAGKVITTAPAGGVEVVEGTKIILYVSKGSN	0.0237
HMEFDSLINYEVKKKETLFSISKKFKIEINDLLSFNTELKNNKLKKNSIIIIPLKKKIVESQNFEKQKIID	-0.719
HMSKMTLGENLRLLRREKGLSQEQVAQTLFVARQTISKWENGQAEPGVESLKALAKLYGVSLDRLVGA	-0.324
HMRTIPDALIGRPYESVETAIVLEGLQAKRTEVFHPTIRPGTVIRLEPTSGSELLRDGVVEIFVSQGPETT	-1.47
HMATAPQIRAIYALGSKLGINQNSREDNLHQLVYSITGKESIKGLTNYEAARVQSELANMERK	0.396
HMGNTTEVLVATQDVKANTKIKESMFTTERVDTASLPDNYLSADSAKDVVGYYTYIGFTKGSVISKSNIAT	0.0364
HMNISLGALVTITDQKGRSHTVTLESGKQFFTNHGSINHDEIIKAGEGGVVASSSGMLYTIFTP	-0.551
HMKKITTANPLDINRATLAQLDTLPGIGPVTAERIIAYRSKVGRINSLDELKKISGLGGMKFEEIKPLLRV	-0.126
HMETSIQFIRLEIGHNHPWVNQTLKEIPTIPGTLIAAVLRGDEDQAIIPKGDTLLKEGDSVIIGAKEYQD	-1.61
HMYKTKVDIAYDMLMERITEGVYKPGEKLVITHISKELGISDIPVREAIRRLESEGYVKILPNQGAIVYD	-0.185
HMDSIDVQQKKLLTDIELGNIEGIKLFLKRHNNTINFLTIKGFHPLVYAVRNNNMEIVNLFLTT	0.159
HMIQMRVKVPKNIAGGSLMGAHHFVKSALARTNPGGSTSNYKIQATDGTPLTLGDLTARQYDEVLIISG	-0.617
HMDLPAEFSKPELETLFKRGKQSGELSLTEVRDALEAAQLPNKKTQTKVLKVLSDNAIHVLMDG	0.0785
HMAFAVWVKLVAIGPNYAQLEIEQGTQRNVRTLRPGDDAPEGVRLLSLTPTHAEVQANGIARKLALGQGMA	-0.0174
HMSLPQSKDAVITILRTLPQLDTRAPEVYKLLGPHALDIILEDPEQVAKKINHVGVATAKLWQQALLGFK	0.198
HMEVKVSGHLEAIGGVYHMKLSWIDDAGKRRRKSKSTGLAERGNKKRANDMLIDFMREQEAEIAASGD	≥ 0.43
HMIFELDSDRASAGNTIGKLVSKWNNTEVASVQFVSGDDTSNKDNASIYLNTRSGGSGNLVRLRITK	0.108
HMGAAVEVISLRYRSAAELLPIVRSLLSTEGKISADERTNSLIIVDSDEAVARVIHSLATLDT	-0.851

Sequence	soluble fraction (log2)
HMKSSISKNWNPSKDAIEILTRAGIDQEFLENLIPEFVIYWIERSDVLISYNSKFIEHARLKWAQHTAEIQ	-0.106
HMQDFEQNLFDGKSIYDRMLSKFSLHNVDVKQLVAHFKRKDTEQFFADIGRGLITSAQMLGFLQT	-0.219
HMGSKDLPFSTFMSEIDKGNITSVDIRGNEIQGTFANGTKFRTYSPNYPNLVEKLNGKGVSITAGPV	0.211
HMLMKPQKTRDVLRYLKSIGWVRLRGGQGSHEIWGLPDGSIRAVIPAGHREISAGVLMQLKRAGVDVPTQW	-0.0803
HMLYGRRFQVEGLNLERYLRAAADSGIPLKGARRFGRTLTGVAAEEHMAALEALARQGGWLFTPLEAVGAN	-0.0895
HMKAILHQESRSGFANATVIGGLDKFLDTNWNQLSKYIKKIETPYSDRSLEDRKIWISTILGILSTEI	0.136
HMEPDTVVVPNFVGKVYASEIEGNEAYSDFTFVIKEGNDPEQDIGVVLKQTPNEGLEVKKGKEITLTINQ	-0.169
HMPQLEDLEPLDSSGMVRRDGPHLVLAVGRHRGRHLEEVRDSDPSYLHWLLSPKGIEDIQAKEDIKTYLNL	-0.302
HMINLVPFELKFITAQVLDDIIKKIGINADTIILDINPKKIWVYAGEQELSDIQNIVKNVDVEDNI	-2.17
HMDTNTIIGLRIKALRTEKKYTLKYLSENSGLSIGFLSQLERGMTSVAIDSLDKISKVLDVELSSFFN	-0.65
HMLMRSPDFLIGWFQNLVAKRETFNDQVQAKNLIEAGKQHIQGEDFDRLLEVNRRLFSLLPQREQE	-1.27
HMVPSTAVIFTELVSMRSEPATKSPVTHQLTKGTAITINEEKDGWYQVTDQTGNSGWIVKWAVKPTYFTNP	0.31
HMEKTLAERVNDILAEIKMTKQELAMQLNISRSAVSQYLNGKYSSNPEAIEARLRDFVSSYDRG	-0.243
HMIRILIVDDSAFMRKLLSDVFEEDKNFVVVDTARNGQDAVEKVKRLKPDLVTMDVEMPVMDGLTAVEIIM	-1.12
HMKQGKGIIVVDGKLMPEDFNVATLSLDEVESITVLKGEKAVALYGEKAKEREVLLITTQKG	-0.316
HMEVAAAENYRSKLSSFAKDTISVWQTELLLGTISDDDKASLTEWMAYIKALQVVDTSDPESITWPTEPT	-1.12
HMEDIKHVVANNIKKYRKEERLTLQQLSYLTGVSKTMLNQIETEKSSPSITILWRISSGLKIPLSKLISSP	0.143
HMNIEDFKDKVKELKQYTYQELVEDVKLKTDRADVILPASKIYLEAMQQAKVDSIIVPKVGLAEGVAR	0.149
HMRARTQYWPFVEEKAAELKLPLHLVNVEPLFGEQKVVVHYTANGRIDFRELVHLLARRFHARIEMR	0.0493
HMAPAPDEAFAEFVRSSAPSLTRTAWLLTGDRGHAQDLVQNAYAKTLQAWGRLDAEGALAYTRRAVIT	-0.0327
HMKTKTIMSTGAREDLVKMINEYYYSKNYIITEDNRIYNTKTEKFMDDLSVKFYRGRWKVIRN	0.0289
HMDAISYTQFMEEAKQGRINKVEVQGRTLMVTPTDGKAYSLTSPGDLWMTTDLMKYGVNVYGAE	-0.527
HMQTFNADDIEPIIKEILQENPKAISDFLTGNENVVKFLLGQVMKNTKGKANPKVIEELLINQLRELNN	-0.663
HMSLTPSQDANRSAILDAARDLFARYGFKKTTMEDIAMALRKGKSSLYYYFKNKEDIFQAVIDS	-0.0869
HMPRVSIEKIKKVVELLKHNPDYTYSKIGNIVGIGRKTVSGINNGKLYTDLVEELGINEFPI	0.0348
HMAMTNEEREALISEIKQTVNNSIDLKKDISDTEIKEAITQAVFERSEKSYLSIAEKQDIITAVFNSMR	-0.159

Sequence	soluble fraction (log2)
HMSSPDMSLLYSELDVKDSGQIVTILEQRNIPYEVRNNGSQIYIPSNNVQRIRLSLAQEGLPSG	0.152
HMDSLSGQQGRVLEEINGFLQTGKVLLNGMEWSAVSKQPEDILPVDTEVVVVRVEGAHLVVKKA	-0.488
HMDVSEITTIKWIIKETKLGINEKILIYVNSKNFTVETLMEGFEIMSKYLVENVSSDKIVYIKN	0.22
HMKRVVFFNGISWYHRTKELLDDMTTKYGKKGGFATPEEAEKSYWEYEERYKDRQRELQVAYLKN	-0.913
HMGLDQNTLDRVDDINDTLATGIEIGPETRGTIEELNETLANGLKAGFDEETLARVDELLRVVEDGLK	-1.15
HMFSGVQLGQAISEAIKRKNVSQKEVADHFGVKQPSVSGWIKNGRIDKKHLDKLIDYFSDVVTPSHFGIE	0.241
HMGEDSEPVQVPDVTGQPLWEARRTLSSMGLKVLDDGGSGSVTAQMPSAGATLRNGGQMMLYTYDEALPE	0.033
HMKLSIGGTIEKLRRNKGLSHQQLANALGVTPDTVEKWEINAAYPDITLLSPIARLLGTTLDALLMF	-0.828
HMNPKTELMVYLKKRDEWVASQILSDVLQVSTRTIRKFVKEINMDYQTENVILSSSKGYKLNQNLLSSL	-0.281
HMEVGDTYLGKVTRVSSFGAFIEVLPGKEGLMRQNDAGEGGMPEVGDEVMVRVMEVDHLGRINLSGKLDD	-1.32
HMFTYDLSERELTIIELVAKGLNNKELADTLFLSEGTIRNYLSTLLNKLDLRDRTQLAIFYYQHL	-2.93
HMFTDAEIKQFAAAAVEVTKIQQDSTISAADKQPKMLAVVQSSGLPPEKFNQIGQAAAADPALQQRIQA	0.159
HMDNLKELDEILETYGKKKGYLITILQKAQDAYGYISIDIMNRISEFTGIKVAKIYGVATFYAQFRL	-0.651
HMNVDALVGMPARVTRAFVQGAGEVKLDNGETWTARLSAGVTDAEASVGQTVSVIAVRGAAVEVAPE	0.158
HMDGVPPAGSRIRLTVSTQVGDKEFEGTLVPPAGVDLLTLKLANGYNLSHSIADVREVVLIEEGLQGEEP	-2.05
HMKISDLPAAQVYREIVHAWPKAAAYADLAPINNGGMQRWRDVVHEWVLRGYNPANLRGMLEWYKAGIPTR	-0.132
HMDGRSLSHATLEEIRIRAVQRVEAGESPEVVVKALGFSRPRIYEWLALYREGGLEALRAKPV	-0.53
HMDKVEQLMQNPVIQEKMSEGDRELLRNASLVVLGRLEDDGSIIQRFVELFGEEAYERLKSELM	-0.865
HMAGEDPANLELMRLMDEEYMEHPTKGVLGMVDFLRALGILTGPKRVRRLLRKMGIMAIYPK	-0.396
HMENDPYEILGIARSASDDEIKAKYRALTRENHPDILMAKGVPQEFIDLANEKMAVINAAYDKIEKER	0.12
HMGEPTLTIRVVSYNPQSGEMVVVARDPLSGRYALATLNVRTGAGQMIGPQGELLPIENFALGS	-0.692
HMVMAELRISVDRLQIGNYIKLPLSWRDHPFLLSSFMIKKEEQIQLIRQLRLKHVFIIPEKSDAPPKPA	-1.81
HMRMTRQRKVILEELGKVYTHPTADEIYTMVKEKLPNISLGTVYRNLDLLAENNQVLKLETAGNIRRYD	-0.375
HMNQEIELLLREPDFTSAARLAMAINERFTNSARAIDPTSVKVRMPEGLDQASVDFVARLEDIEMSPDT	-0.587
